Measurements from publication PMC12068309, “AHCYL1 mediates the tumor-promoting effect of PREX2 in non-small cell lung carcinoma” (Theranostics, 2025).

Target: T1, purified Flag-PREX2 protein (UniProt Q70Z35 1-1606)
T1 construct: PREX2, full length (183 kD); it may be the same construct; also called purified PREX2 protein; purified full-length PREX2; source: recombinant, purified (as described in Supplementary materials and methods)
Assay: pull-down; 25 µL AHCYL1-binding glutathione magnetic beads with 250 ng purified Flag-PREX2, on ice 1 h; washed with 50 mM Tris-HCl pH 7.4, 300 mM NaCl, 0.5% NP40; detected by Flag antibody
Conditions: both partners purified

T1 sequence (Q70Z35 whole entry): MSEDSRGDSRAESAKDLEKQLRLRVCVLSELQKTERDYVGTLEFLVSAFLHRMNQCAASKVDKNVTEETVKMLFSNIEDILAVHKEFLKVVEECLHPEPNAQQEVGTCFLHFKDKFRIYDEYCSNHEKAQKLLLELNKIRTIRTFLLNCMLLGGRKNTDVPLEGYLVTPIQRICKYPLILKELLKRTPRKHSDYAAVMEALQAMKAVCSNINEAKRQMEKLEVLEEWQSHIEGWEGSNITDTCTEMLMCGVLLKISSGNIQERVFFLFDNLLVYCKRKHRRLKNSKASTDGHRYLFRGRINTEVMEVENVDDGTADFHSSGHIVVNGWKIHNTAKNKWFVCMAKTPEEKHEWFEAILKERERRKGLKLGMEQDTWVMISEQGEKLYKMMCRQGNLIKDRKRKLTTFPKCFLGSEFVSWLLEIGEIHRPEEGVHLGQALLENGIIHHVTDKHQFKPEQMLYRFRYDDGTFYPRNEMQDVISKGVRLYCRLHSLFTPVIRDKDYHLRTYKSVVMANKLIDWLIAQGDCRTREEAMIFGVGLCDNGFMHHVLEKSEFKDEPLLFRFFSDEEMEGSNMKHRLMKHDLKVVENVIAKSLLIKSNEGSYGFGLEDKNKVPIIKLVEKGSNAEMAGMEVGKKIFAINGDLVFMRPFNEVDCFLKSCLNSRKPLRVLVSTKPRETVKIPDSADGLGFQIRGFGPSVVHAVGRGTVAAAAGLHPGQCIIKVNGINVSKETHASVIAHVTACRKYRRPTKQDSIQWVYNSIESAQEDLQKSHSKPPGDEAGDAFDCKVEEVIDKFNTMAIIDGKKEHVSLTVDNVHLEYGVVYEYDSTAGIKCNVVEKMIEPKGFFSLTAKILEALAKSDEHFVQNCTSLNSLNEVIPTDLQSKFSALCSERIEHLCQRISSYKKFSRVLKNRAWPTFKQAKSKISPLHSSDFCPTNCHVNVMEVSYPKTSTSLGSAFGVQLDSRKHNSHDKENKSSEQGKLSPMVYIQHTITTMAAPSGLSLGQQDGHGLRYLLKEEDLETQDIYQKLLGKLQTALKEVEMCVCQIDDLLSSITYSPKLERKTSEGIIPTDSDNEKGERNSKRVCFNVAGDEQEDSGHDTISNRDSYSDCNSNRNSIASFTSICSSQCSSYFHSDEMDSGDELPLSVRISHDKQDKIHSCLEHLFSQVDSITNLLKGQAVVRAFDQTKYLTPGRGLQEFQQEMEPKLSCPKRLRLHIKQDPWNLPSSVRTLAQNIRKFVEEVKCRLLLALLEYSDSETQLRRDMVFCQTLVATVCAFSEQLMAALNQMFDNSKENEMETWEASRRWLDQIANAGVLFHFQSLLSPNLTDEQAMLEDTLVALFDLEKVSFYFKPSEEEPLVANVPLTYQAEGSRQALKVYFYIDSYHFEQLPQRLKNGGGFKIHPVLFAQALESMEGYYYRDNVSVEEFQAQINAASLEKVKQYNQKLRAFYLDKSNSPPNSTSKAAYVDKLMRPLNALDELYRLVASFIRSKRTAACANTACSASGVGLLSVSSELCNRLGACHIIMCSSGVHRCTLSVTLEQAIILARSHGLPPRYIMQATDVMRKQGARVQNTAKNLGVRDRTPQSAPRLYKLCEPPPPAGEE

binding result: binds
B1: GST-AHCYL1 recombinant protein (natural protein, UniProt O43865 1-530, looked up)
chain: MSMPDAMPLPGVGEELKQAKEIEDAEKYSFMATVTKAPKKQIQFADDMQEFTKFPTKTGRRSLSRSISQSSTDSYSSAASYTDSSDDEVSPREKQQTNSKGSSNFCVKNIKQAEFGRREIEIAEQDMSALISLRKRAQGEKPLAGAKIVGCTHITAQTAVLIETLCALGAQCRWSACNIYSTQNEVAAALAEAGVAVFAWKGESEDDFWWCIDRCVNMDGWQANMILDDGGDLTHWVYKKYPNVFKKIRGIVEESVTGVHRLYQLSKAGKLCVPAMNVNDSVTKQKFDNLYCCRESILDGLKRTTDVMFGGKQVVVCGYGEVGKGCCAALKALGAIVYITEIDPICALQACMDGFRVVKLNEVIRQVDVVITCTGNKNVVTREHLDRMKNSCIVCNMGHSNTEIDVTSLRTPELTWERVRSQVDHVIWPDGKRVVLLAEGRLLNLSCSTVPTFVLSITATTQALALIELYNAPEGRYKQDVYLLPKKMDEYVASLHLPSFDAHLTELTDDQAKYLGLNKNGPFKPNYYRY
notes: AHCYL1 (IRBIT); Construct details are in the supplementary materials and methods; also called AHCYL1 conjugated-GST beads; source: recombinant, purified (as described in Supplementary materials and methods)
